The record followed here is the supplement of paper PMC7125110.

± gives the standard error. This sample holds only a part of the variants without activity.

Sequences and labels used below:
B1: glmS ribozyme (parent)
chain: AUAAAAGCGCCAGAACUACAGAAAUGUAGUUGACGAGGAGGAGGUUUAUCGAAUUUUCGGCGGAUGCCUCCAAA

Common to all, as to conditions: with glucosamine-6-phosphate
The variants in series [1] derive from B1. As to the kind of experiment: self-cleavage kobs at 40 uM GlcN6P; higher = faster cleavage; RNA array. In a few lines:
(§1)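 Ribozyme variants carrying barcodes were transcribed in situ on sequenced MiSeq chips by E. coli RNA polymerase and tracked at 37 °C with a hybridised Cy3 probe. They were exposed to 40 μM to 10 mM glucosamine-6-phosphate in HEPES/KCl/Mg(OAc)2 buffer. kobs came from exponential decay fits of normalised per-tile medians, and kcat and KM from weighted Michaelis–Menten fits.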

Variants of B1 are the subject of series [2]. As to the kind of experiment: self-cleavage kobs at 640 uM GlcN6P; higher = faster cleavage; RNA array. The essentials: as §1
The variants in series [3] derive from B1. Description: self-cleavage kobs at 10000 uM GlcN6P; higher = faster cleavage; RNA array. In a few lines:
as §1

In series [4] the parent is B1. Description: self-cleavage kobs at 160 uM GlcN6P; higher = faster cleavage; RNA array. The essentials:
as §1

In series [5] the parent is B1. Description: self-cleavage kobs at 2500 uM GlcN6P; higher = faster cleavage; RNA array. The essentials:
as §1

Consider A33G G60C C61U, for which the “self-cleavage kobs at 40 uM GlcN6P” value in series [1] was less than 1e-05 s⁻¹. The “self-cleavage kobs at 640 uM GlcN6P” value in series [2] is less than 1e-05 s⁻¹. Further, the “self-cleavage kobs at 10000 uM GlcN6P” value in series [3] was less than 1e-05 s⁻¹.
As to G38U G41A U69G, in series [1], the “self-cleavage kobs at 40 uM GlcN6P” value is less than 1e-05 s⁻¹. Moreover, the “self-cleavage kobs at 160 uM GlcN6P” value in series [4] was less than 1e-05 s⁻¹. The “self-cleavage kobs at 640 uM GlcN6P” value in series [2] is less than 1e-05 s⁻¹. Moreover, the “self-cleavage kobs at 2500 uM GlcN6P” value in series [5] is less than 1e-05 s⁻¹.
Take G7U A64C: the “self-cleavage kobs at 40 uM GlcN6P” value in series [1] was less than 1e-05 s⁻¹. The “self-cleavage kobs at 640 uM GlcN6P” value in series [2] was less than 1e-05 s⁻¹. The “self-cleavage kobs at 10000 uM GlcN6P” value in series [3] was less than 1e-05 s⁻¹.
For G29C A36G G51C, in series [1], the “self-cleavage kobs at 40 uM GlcN6P” value was less than 1e-05 s⁻¹.
With G29C A64U, the “self-cleavage kobs at 40 uM GlcN6P” value in series [1] was less than 1e-05 s⁻¹. Moreover, the “self-cleavage kobs at 160 uM GlcN6P” value in series [4] was less than 1e-05 s⁻¹.
On to U47G U49G C50G G51A C61A, for which, in series [1], the “self-cleavage kobs at 40 uM GlcN6P” value amounted to 9.02e-05 ± 2.3e-05 s⁻¹. Moreover, the “self-cleavage kobs at 10000 uM GlcN6P” value in series [3] worked out at 0.000142 ± 3.3e-05 s⁻¹.
For A6G A15C U31C A42C the same measures were less than 1e-05 s⁻¹ and less than 1e-05 s⁻¹.
For A6G G13C U31G A39C U45G the same measures were less than 1e-05 s⁻¹ and less than 1e-05 s⁻¹.
As for A12U G13C C34U G62A U65G, the “self-cleavage kobs at 40 uM GlcN6P” value in series [1] is less than 1e-05 s⁻¹.
Still for that read-out and setting: to A12U U57A G59C G60C belongs less than 1e-05 s⁻¹; to C10U A12G U46A U47G U49G, less than 1e-05 s⁻¹.
For the variant G40A G63C, the “self-cleavage kobs at 40 uM GlcN6P” value in series [1] was less than 1e-05 s⁻¹. The “self-cleavage kobs at 640 uM GlcN6P” value in series [2] is less than 1e-05 s⁻¹.
C8A G29C: the “self-cleavage kobs at 40 uM GlcN6P” value in series [1] was less than 1e-05 s⁻¹. The “self-cleavage kobs at 160 uM GlcN6P” value in series [4] is less than 1e-05 s⁻¹. For the same variant, the “self-cleavage kobs at 640 uM GlcN6P” value in series [2] was less than 1e-05 s⁻¹. The “self-cleavage kobs at 2500 uM GlcN6P” value in series [5] is less than 1e-05 s⁻¹. The “self-cleavage kobs at 10000 uM GlcN6P” value in series [3] was less than 1e-05 s⁻¹.
As for A33C A52C C71A, the “self-cleavage kobs at 40 uM GlcN6P” value in series [1] is less than 1e-05 s⁻¹. For the same variant, the “self-cleavage kobs at 640 uM GlcN6P” value in series [2] was less than 1e-05 s⁻¹. In series [5], the “self-cleavage kobs at 2500 uM GlcN6P” value was less than 1e-05 s⁻¹.
As for G7C G32A, in series [1], the “self-cleavage kobs at 40 uM GlcN6P” value was less than 1e-05 s⁻¹. The “self-cleavage kobs at 160 uM GlcN6P” value in series [4] is less than 1e-05 s⁻¹. In addition, the “self-cleavage kobs at 10000 uM GlcN6P” value in series [3] was less than 1e-05 s⁻¹.
Take C16U G51A: in series [1], the “self-cleavage kobs at 40 uM GlcN6P” value is less than 1e-05 s⁻¹. Besides, the “self-cleavage kobs at 160 uM GlcN6P” value in series [4] is less than 1e-05 s⁻¹.
Consider C8G A39C U55G G59U, for which the “self-cleavage kobs at 40 uM GlcN6P” value in series [1] was less than 1e-05 s⁻¹. Moreover, in series [3], the “self-cleavage kobs at 10000 uM GlcN6P” value was less than 1e-05 s⁻¹.
Regarding U31A A36G, the “self-cleavage kobs at 40 uM GlcN6P” value in series [1] is less than 1e-05 s⁻¹. For the same variant, the “self-cleavage kobs at 160 uM GlcN6P” value in series [4] is less than 1e-05 s⁻¹. Also, the “self-cleavage kobs at 640 uM GlcN6P” value in series [2] was less than 1e-05 s⁻¹.
For the variant G51A C58A, in series [1], the “self-cleavage kobs at 40 uM GlcN6P” value is less than 1e-05 s⁻¹. For the same variant, the “self-cleavage kobs at 640 uM GlcN6P” value in series [2] is less than 1e-05 s⁻¹. In addition, in series [3], the “self-cleavage kobs at 10000 uM GlcN6P” value is less than 1e-05 s⁻¹.
G32A G35A: the “self-cleavage kobs at 40 uM GlcN6P” value in series [1] was less than 1e-05 s⁻¹. For the same variant, the “self-cleavage kobs at 160 uM GlcN6P” value in series [4] is less than 1e-05 s⁻¹. Besides, the “self-cleavage kobs at 640 uM GlcN6P” value in series [2] was less than 1e-05 s⁻¹. For the same variant, in series [5], the “self-cleavage kobs at 2500 uM GlcN6P” value was less than 1e-05 s⁻¹. In addition, the “self-cleavage kobs at 10000 uM GlcN6P” value in series [3] was less than 1e-05 s⁻¹.
As for C11A U31C G44C C70U, the “self-cleavage kobs at 40 uM GlcN6P” value in series [1] is less than 1e-05 s⁻¹.
Regarding U30G A39G, the “self-cleavage kobs at 40 uM GlcN6P” value in series [1] came out at 0.000352 ± 8.4e-05 s⁻¹. Further, the “self-cleavage kobs at 160 uM GlcN6P” value in series [4] came to 0.000654 ± 0.00021 s⁻¹. Further, the “self-cleavage kobs at 640 uM GlcN6P” value in series [2] stood at 0.00235 ± 0.00063 s⁻¹. Moreover, the “self-cleavage kobs at 2500 uM GlcN6P” value in series [5] was 0.00681 ± 0.0014 s⁻¹. The “self-cleavage kobs at 10000 uM GlcN6P” value in series [3] is 0.0183 ± 0.007 s⁻¹.
For G9C C11U the same measures were less than 1e-05 s⁻¹, less than 1e-05 s⁻¹, less than 1e-05 s⁻¹, less than 1e-05 s⁻¹ and less than 1e-05 s⁻¹.
On to A14U A52C, for which the “self-cleavage kobs at 40 uM GlcN6P” value in series [1] was less than 1e-05 s⁻¹. The “self-cleavage kobs at 160 uM GlcN6P” value in series [4] is less than 1e-05 s⁻¹.
In the case of A15C A33U C61A, in series [1], the “self-cleavage kobs at 40 uM GlcN6P” value is less than 1e-05 s⁻¹.
